Results reported in patent publication US20190071480A1 (Biogen, published 2019).

Key:
[1] = biological target: T1, extracellular domain of activin receptor type IIB (ActRIIBecd), biotinylated (Homo sapiens (Human), UniProt Q13705 27-117, amino-biotinylated with amine-PEG3-Biotin); experiment: BIAcore SPR, biotinylated ActRIIBecd on chip; SD ±14.11 nM
T1 construct: immobilised on a streptavidin-coated sensor chip; also called biotinylated ActRIIBecd; extracellular domain of ActRIIB
T1 sequence: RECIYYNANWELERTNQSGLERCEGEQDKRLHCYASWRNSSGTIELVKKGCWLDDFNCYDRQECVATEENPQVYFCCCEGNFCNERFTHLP
Protocol: (§1) Biosensor experiments. In one embodiment, experiments were performed on a BIAcore™ T100/T200 instrument (Pharmacia Biosensor AB) in the multichannel mode (serial flow path involving flow cells 1+2+3+4). Flow rate was 10 μl/min; temperature was 25° C.; and data were recorded at 2.5 points/s. All four segments of a sensor chip CMS were coated with streptavidin (Sigma) to a density of 2000 pg/mm² (2000 resonance units) by the aminocoupling procedure. ActRIIBecd (10 mg) and amine-PEG3-Biotin (10 mg, Pierce, Rockford, Ill.) were dissolved in 200 μl H₂O and 10 mg NaCNBH₃ was added to prepare biotinylated ActRIIBecd. The reaction mixture was heated at 70° C. for 24 h, after that a further 10 mg NaCNBH₃ was added and the reaction was heated at 70° C. for another 24 h. After cooling to room temperature, the mixture was desalted with the spin column (3,000 molecular weight cut off (MWCO)). […] Sensograms were recorded during flow of the analyte (the ActRIIBecd-associated polypeptides (i.e., domains) as previously described) first through flow cell 1 (control) then through flow cell 2 (biotinylated ActRIIBecd). […] The sensograms obtained at 1.11, 3.33, 10, 30, and 90 nM analyte were evaluated for equilibrium binding, association rate, and dissociation rate by using the programs supplied with the instrument (BIA evaluation 2.1; Software Handbook. 1995; Pharmacia Biosensor AB).

[2] = biological target: T1, extracellular domain of activin …; experiment: Mean KD column of Table 5; method not restated (BIAcore as Example 5); species also listed in Table 4
Protocol: Biosensor experiments. In one embodiment, experiments were performed on a BIAcore™ T100/T200 instrument (Pharmacia Biosensor AB) in the multichannel mode (serial flow path involving flow cells 1+2+3+4). Flow rate was 10 μl/min; temperature was 25° C.; and data were recorded at 2.5 points/s. All four segments of a sensor chip CMS were coated with streptavidin (Sigma) to a density of 2000 pg/mm² (2000 resonance units) by the aminocoupling procedure. ActRIIBecd (10 mg) and amine-PEG3-Biotin (10 mg, Pierce, Rockford, Ill.) were dissolved in 200 μl H₂O and 10 mg NaCNBH₃ was added to prepare biotinylated ActRIIBecd. The reaction mixture was heated at 70° C. for 24 h, after that a further 10 mg NaCNBH₃ was added and the reaction was heated at 70° C. for another 24 h. After cooling to room temperature, the mixture was desalted with the spin column (3,000 molecular weight cut off (MWCO)). Biotinylated ActRIIBecd was collected, freeze-dried and used for streptavidin (SA) chip preparation. Amino-biotinylated ActRIIBecd was then immobilized independently on flow cells 2-4 for 10 minutes at a flow rate of 5 μL/min and a concentration of 20 μM in 10 mM sodium acetate, pH 4.0, at a density of 50-250 resonance units (RU). The stored polypeptides were dissolved in glycine buffer (2.5 g of glycine, 0.5 g of sucrose, 370 mg of L-glutamate, 10 mg of sodium chloride, and 10 mg of Tween 80 in 100 mL water, pH 4.5) to prepare 10 mg/mL solution and then diluted with previous glycine buffer to prepare analytes with various concentration. Sensograms were recorded during flow of the analyte (the ActRIIBecd-associated polypeptides (i.e., domains) as previously described) first through flow cell 1 (control) then through flow cell 2 (biotinylated ActRIIBecd). The sensogram obtained for flow cell 1 was subtracted from the sensogram obtained for flow cell 2. The sensograms obtained at 1.11, 3.33, 10, 30, and 90 nM analyte were evaluated for equilibrium binding, association rate, and dissociation rate by using the programs supplied with the instrument (BIA evaluation 2.1; Software Handbook. 1995; Pharmacia Biosensor AB).

[3] = biological target: T1, extracellular domain of activin …; experiment: BIAcore SPR as Example 5 (method not restated); SD ±1.35 nM
Protocol: as §1

[4] = biological target: T1, extracellular domain of activin …; experiment: BIAcore SPR as Example 5 (method not restated); SD ±1.07 nM
Protocol: as §1

[5] = biological target: T1, extracellular domain of activin …; experiment: BIAcore SPR as Example 5 (method not restated); SD ±1.77 nM
Protocol: as §1

[6] = biological target: T1, extracellular domain of activin …; experiment: BIAcore SPR as Example 5 (method not restated); SD ±3.15 nM
Protocol: as §1

[7] = biological target: T1, extracellular domain of activin …; experiment: BIAcore SPR, biotinylated ActRIIBecd on chip; SD ±13.51 nM
Protocol: as §1

[8] = biological target: T1, extracellular domain of activin …; experiment: BIAcore SPR as Example 5 (method not restated); SD ±2.45 nM
Protocol: as §1

[9] = biological target: T1, extracellular domain of activin …; experiment: BIAcore SPR, biotinylated ActRIIBecd on chip; SD ±16.41 nM
Protocol: as §1

[10] = biological target: T1, extracellular domain of activin …; experiment: BIAcore SPR as Example 5 (method not restated); SD ±1.72 nM
Protocol: as §1

B1: Clone No. 27 domain (ActRIIBecd-associated polypeptide) (peptide)
chain: TYPASPKPMRWKMRSCACCAGGLRNRTGTV
A Kd [1] of 49.3 nM was found for B1 in this work.

B2: SEQ ID NO: 260, cysteine pairs C79-C80^a (designed binder)
chain: AQAKHKQRKRLKSSCKRHPLYVDFSDVGWNDWIVAPPGYHAFYCHGECPFPLADHLNSTNHAIVQTLVNSVNSKIPKACCVPTELSAISMLYLDENEKVVLKNYQDMVVEGCGCR
modifications: disulfides C79-C80 (intra)
A Kd [2] of 29.1 nM and a Kd [3] of 29.1 nM were found for B2 in this work.

B3: SEQ ID NO: 260, cysteine pairs C80-C114^a, C79-C112^a, C44-C48^a (designed binder)
chain: AQAKHKQRKRLKSSCKRHPLYVDFSDVGWNDWIVAPPGYHAFYCHGECPFPLADHLNSTNHAIVQTLVNSVNSKIPKACCVPTELSAISMLYLDENEKVVLKNYQDMVVEGCGCR
modifications: disulfides C80-C114 (intra), C79-C112 (intra), C44-C48 (intra)
A Kd [2] of 8.31 nM and a Kd [4] of 8.31 nM were found for B3 in this work.

B4: SEQ ID NO: 324, cysteine pairs C15-C15^b, C80-C114^b, C79-C112^b, C44-C48^a (designed binder)
chain: AQAKHKQRKRLKSSCKRHPLYVDFKDVGWNDHAVAPPGYHAFYCHGECPFPLADHLNSDNHAIVQTKVNSVNSKIPKACCVPTELSAISMLYLDENEKVVLKNYQDMVVEGCGCR
modifications: disulfides C15-C15 (inter), C80-C114 (inter), C79-C112 (inter), C44-C48 (intra)
notes: homodimer by intermolecular disulfide
A Kd [2] of 9.11 nM and a Kd [5] of 9.11 nM were found for B4 in this work.

B5: SEQ ID NO: 284, cysteine pairs C8-C9^a (designed binder)
chain: NSKIPKACCVPTELSAISMLYLDENEKVVLKNYQDMVVEGCGCRAQAKHKQRKRLKSSCKRHPLYVDFSDVGWNDWIVAPPGYHAFYCHGECPFPLADHLNSTNHAIVQTLVNSV
modifications: disulfides C8-C9 (intra)
A Kd [2] of 31.8 nM and a Kd [6] of 31.8 nM were found for B5 in this work.

B6: SEQ ID NO: 284, cysteine pairs C59-C59^b, C8-C43^a, C9-C41^a, C88-C92^a (designed binder)
chain: NSKIPKACCVPTELSAISMLYLDENEKVVLKNYQDMVVEGCGCRAQAKHKQRKRLKSSCKRHPLYVDFSDVGWNDWIVAPPGYHAFYCHGECPFPLADHLNSTNHAIVQTLVNSV
modifications: disulfides C59-C59 (inter), C8-C43 (intra), C9-C41 (intra), C88-C92 (intra)
notes: as for B4
A Kd [2] of 6.88 nM and a Kd [3] of 6.88 nM were found for B6 in this work.

B7: SEQ ID NO: 276, cysteine pairs C67-C71^a, C8-C41^b, C9-C43^b, C109-C109^b (designed binder)
chain: NSKIPKACCVPTELSAISMLYLDENEKVVLKNYQDMVVEGCGCRVDFSDVGWNDWIVAPPGYHAFYCHGECPFPLADHLNSTNHAIVQTLVNSVAQAKHKQRKRLKSSCKRHPLY
modifications: disulfides C67-C71 (intra), C8-C41 (inter), C9-C43 (inter), C109-C109 (inter)
notes: as for B4
A Kd [2] of 8.13 nM and a Kd [5] of 8.13 nM were found for B7 in this work.

B8: Recombinant polypeptide of clones 21 + 15 + 10 (designed binder)
chain: NSKIPKACCVPTELSAISMLYLDENEKVVLKNYQDMVVEGCGCRVDFSDVGWNDWIVAPPGYHAFYCHGECPFPLADHLNSTNHAIVQTLVNSVAQAKHKQRKRLKSSCKRHPLY
A Kd [7] of 14.2 nM was found for B8 in this work.

B9: SEQ ID NO: 268, cysteine pairs C23-C27^a, C65-C65^b, C79-C114^b, C80-C112^b (designed binder)
chain: VDFSDVGWNDWIVAPPGYHAFYCHGECPFPLADHLNSTNHAIVQTLVNSVAQAKHKQRKRLKSSCKRHPLYNSKIPKACCVPTELSAISMLYLDENEKVVLKNYQDMVVEGCGCR
modifications: disulfides C23-C27 (intra), C65-C65 (inter), C79-C114 (inter), C80-C112 (inter)
notes: as for B4
A Kd [2] of 8.03 nM and a Kd [8] of 8.03 nM were found for B9 in this work.

B10: Recombinant polypeptide of clones 18 + 17 (designed binder)
chain: VDFSDVGWNDHAVAPPGYHAFYCHGECPFPLADHLNSTNHAIVQTLVNSVVDFSDVGWNDWIVAPPGYHAFYCHGECPFPLADHLNSDNHAIVQTLVNSV
A Kd [9] of 66.4 nM was found for B10 in this work.

B11: SEQ ID NO: 188, cysteine pairs C44-C48^a (designed binder)
chain: AQAKHKQRKRLKSSCKRHPLYVDFSDVGWNDWIVAPPGYHAFYCHGECPFPLADHLNSTNHAIVQTLVNSV
modifications: disulfides C44-C48 (intra)
A Kd [2] of 21.5 nM and a Kd [10] of 21.5 nM were found for B11 in this work.
